Data on 31 molecules can be found in patent US20210380703A1 (RIGEL PHARMACEUTICALS, published 2021).

Where a chain is given by its changes, count along the chain named.

To fix the notation:
B1: 369_C09 (antibody, V domains shown)
VH: EVQLLESGGGLVQPGGSLRLSCAASGFTFSSYGMHWVRQAPGKGLEWVSSINYNGGYTGYADSVKGRFTISRDNSKNTLYLQMNSLRAEDTAVYYCARAATWHDTHLDYWGQGTLVTVSS
VL: DIQMTQSPSSLSASVGDRVTITCRASQSIVSYLNWYQQKPGKAPKLVIYAATSRHSGVPSRFSGSGSGTDFTLTISSLQPEDFATYYCQQSYDLPLTFGGGTKVEIK
notes: Group II
B2: 370_B01 (antibody, V domains shown)
VH: B1 VH with S30D, S31D, S50G, T58K, G59S, T101N, H106A
VL: B1 VL with V30L, L33V, V47L, A50V, T52S, H55A, D93S
notes: Group I
B3: 369_C11 (antibody, V domains shown)
VH: B1 VH with S31D, S49A, S50G
VL: B1 VL with V30L, H55A, L94T
notes: Group II
B4: 372_E02 (antibody, V domains shown)
VH: B1 VH with H35N, S49A, G59S, T101N, H106A
VL: B1 VL with V30I, L33V, H55A
notes: Group I
B5: 372_B11 (antibody, V domains shown)
VH: B1 VH with G33S, S49A, S50G, G55S, G59S, T101N
VL: B1 VL with V30L, S31T, L33V, R54L, H55A, L94T
notes: Group I
B6: 369_H03 (antibody, V domains shown)
VH: B1 VH with G33S, S49A, G55S, T58K, G59S, T101N, H106A
VL: B1 VL with V47L, A51T, H55A, L94T
notes: Group I
B7: 370_D06 (antibody, V domains shown)
VH: B1 VH with H35N, S49A, G59S, T101N
VL: B1 VL with V30I, R54L, H55A, D93S, L94S
notes: Group I
B8: 371_A04 (antibody, V domains shown)
VH: B1 VH with S30D, H35N, G55S, T101N, H106A
VL: B1 VL with V30L, S31T, V47L, A51V, H55A, L94T
notes: Group I
B9: 371_B11 (antibody, V domains shown)
VH: B1 VH with G33S, S49A, G55S, G59S
VL: B1 VL with V30L, S31T, V47L, H55A, D93E
notes: Group II
B10: 369_G10 (antibody, V domains shown)
VH: B1 VH with S49A, G59S, T101N, H106A
VL: B1 VL with V30L, H55A, L94S
notes: Group I
B11: 371_A09 (antibody, V domains shown)
VH: B1 VH with H35N, S50G, T58K, G59S, T101N, H106A
VL: B1 VL with S31T, L33V, H55A, L94S
notes: Group I
B12: 370_H08 (antibody, V domains shown)
VH: B1 VH with S49A, G59S, T101N
VL: B1 VL with V30L, L33V, V47L, D93S
notes: Group I
B13: 370_E12 (antibody, V domains shown)
VH: B1 VH with S30D, S49A, S50G, G59S
VL: B1 VL with V30L, L33V, V47L, H55A, D93E, L94N
notes: Group II
B14: 371_A05 (antibody, V domains shown)
VH: B1 VH with S50N, T58K, G59S
VL: B1 VL with V30L, S31T, V47L, H55A, Y92D, D93N
notes: Group II
B15: 369_E03 (antibody, V domains shown)
VH: B1 VH with S49A, S50G, G59S
VL: B1 VL with V30L, L33V, V47L, R54L, H55A, D93E, L94N
notes: Group II
B16: 373_B01 (antibody, V domains shown)
VH: B1 VH with S30D, S50G, T58K, G59S
VL: B1 VL with V30L, L33V, H55A
notes: Group II
B17: 371_D12 (antibody, V domains shown)
VH: B1 VH with S30D, H35N, S50G, T58K, G59S, T101N, H106A
VL: B1 VL with V30L, V47L, H55A, D93E
notes: Group I
B18: 370_B07 (antibody, V domains shown)
VH: B1 VH with S49A, S50N, G55S, T58K, G59S
VL: B1 VL with V30L, S31T, L33V, V47L, D93S, L94S
notes: Group II
B19: 372_D07 (antibody, V domains shown)
VH: B1 VH with H35N, S49A, S50G, G59S
VL: B1 VL with V30L, V47L, H55A, D93E, L94S
notes: Group II
B20: 371_B02 (antibody, V domains shown)
VH: B1 VH with S30D, H35N, S50N, G59S
VL: B1 VL with V30L, S31T, L33V, R54L, H55A, D93N, L94N
notes: Group II
B21: 373_D11 (antibody, V domains shown)
VH: B1 VH with S49A, S50G, G59S
VL: B1 VL with V30L, S31T, L33V, V47L, H55A, L94N
notes: Group II
B22: 373_E11 (antibody, V domains shown)
VH: B1 VH with S30D, S49A, G59S, T101N, H106A
VL: B1 VL with H55A, L94S
notes: Group I
B23: 372_A09 (antibody, V domains shown)
VH: B1 VH with S30D, H35N, S50G, G59S, T101N, H106A
VL: B1 VL with V30L, H55A, D93N, L94S
notes: Group I
B24: 371_F07 (antibody, V domains shown)
VH: B1 VH with S49A, S50G, G59S
VL: B1 VL with V30L, S31T, V47L, R54L, H55A, Y92D, D93S, L94N
notes: Group II
B25: 371_G07 (antibody, V domains shown)
VH: B1 VH with S31D, S49A, S50G, G59S
VL: B1 VL with L33V, H55A, D93S
notes: Group II
B26: 371_C02 (antibody, V domains shown)
VH: B1 VH with S30D, S49A, S50G, G55S
VL: B1 VL with V30L, S31T, L33V, V47L, T52S, R54L, H55Q, L94T
notes: Group II
B27: 371_H02 (antibody, V domains shown)
VH: B1 VH with S30D, S31D, G33S, H35N, S50G, T58K, G59S, T101N
VL: B1 VL with V30I, R54L, H55A, D93E, L94N
notes: Group I
B28: 370_G04 (antibody, V domains shown)
VH: B1 VH with S50G, T101N, H106A
VL: B1 VL with V30L, L33V, V47L, H55A, D93S, L94T
notes: Group I
B29: 370_H05 (antibody, V domains shown)
VH: B1 VH with S50N, G59S
VL: B1 VL with V30L, V47L, T52S, R54L, H55Q, Y92D, D93S
notes: Group II
B30: 371_D05 (antibody, V domains shown)
VH: B1 VH with S30D, S31D, S50G, G59S
VL: B1 VL with V30L, S31T, V47L, T52S, R54L, H55Q, L94S
notes: Group II
B31: 370_B06 (antibody, V domains shown)
VH: B1 VH with S49A, S50G, G59S
VL: B1 VL with L33V, H55A, D93E, L94T
notes: Group II
Note: test concentration or dose not given here.

T1 sequence (P27037 20-135 limits assumed): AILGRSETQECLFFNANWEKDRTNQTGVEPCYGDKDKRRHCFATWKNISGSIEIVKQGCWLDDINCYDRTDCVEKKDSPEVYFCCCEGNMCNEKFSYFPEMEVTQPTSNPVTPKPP
Chain of mouse ACVR2A (P27038 20-135 limits assumed): as the sequence (P27037 20-135 limits assumed) above, with K20R, V73I counted along it

The first experiment concerns the target T1, human ACVR2A (human, UniProt P27037 20-135, limits assumed).
T1 construct: also called activin receptor, type II A
Briefly: ELISA. The procedure, abridged: (§1)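 Monoclonal antibodies were first applied to human or mouse ACVR2A, alongside biotinylated goat anti-human kappa light chain (positive control) and human Fc (negative control); binding was then determined by ELISA.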
A general note: An ELISA detects its analyte on a solid surface through an enzyme-linked reagent.
For the molecule B1, the optical density came out at 2.88 OD.

B2 had an optical density of 3.38 OD.

As for B3, the optical density was determined as 2.8 OD.

Consider B4, for which the optical density amounted to 2.84 OD.

As for B5, the optical density worked out at 2.31 OD.

Regarding B6, the optical density came to 2.83 OD.

Molecule B7 showed an optical density of 2.26 OD.

The molecule B8 had an optical density of 1.01 OD.

Molecule B9 registered an optical density of 3.18 OD.

B10 showed an optical density of 3.37 OD.

The molecule B11 gave an optical density of 1.85 OD.

The molecule B12 yielded an optical density of 2.94 OD.

The molecule B13 registered an optical density of 3.39 OD.

For the molecule B14, the optical density was 3.05 OD.

The molecule B15 gave an optical density of 3.15 OD.

Regarding B16, the optical density was found to be 3.26 OD.

Turning to B17, the optical density is 1.89 OD.

B18 came in with an optical density of 1.91 OD.

B19 came in with an optical density of 2.68 OD.

Molecule B20 returned an optical density of 2 OD.

B21 had an optical density of 3.57 OD.

Molecule B22 gave an optical density of 3.3 OD.

Turning to B23, the optical density turned out to be 2.43 OD.

Regarding B24, the optical density was found to be 2.78 OD.

The molecule B25 showed an optical density of 2.8 OD.

On to B26, for which the optical density was 2.92 OD.

B27 displayed an optical density of 1.88 OD.

For B28, the optical density stood at 1.82 OD.

With B29, the optical density was found to be 2.94 OD.

With B30, the optical density worked out at 2.72 OD.

The molecule B31 registered an optical density of 2.88 OD.

Another experiment addresses mouse ACVR2A (mouse, UniProt P27038 20-135, limits assumed). Briefly: ELISA. Summed up: as §1
On to B1, for which the optical density turned out to be 3.05 OD.

Take B2: the optical density was 3.47 OD.

The molecule B3 returned an optical density of 2.91 OD.

As for B4, the optical density is 2.74 OD.

B5 gave an optical density of 2.58 OD.

On to B6, for which the optical density stood at 3.08 OD.

For B7, the optical density was 2.66 OD.

The molecule B8 gave an optical density of 1.17 OD.

B9 registered an optical density of 3.26 OD.

B10 yielded an optical density of 3.29 OD.

B11 displayed an optical density of 2 OD.

As to B12, the optical density was found to be 3.24 OD.

Take B13: the optical density came to 3.44 OD.

The molecule B14 showed an optical density of 3.24 OD.

For the molecule B15, the optical density is 3.36 OD.

The molecule B16 gave an optical density of 3.58 OD.

B17 came in with an optical density of 2 OD.

The molecule B18 had an optical density of 2.2 OD.

In the case of B19, the optical density worked out at 2.99 OD.

For B20, the optical density amounted to 2.28 OD.

In turn, B21 registered an optical density of 3.55 OD.

Take B22: the optical density is 3.36 OD.

In the case of B23, the optical density turned out to be 2.56 OD.

For B24, the optical density came to 2.89 OD.

In turn, B25 showed an optical density of 2.99 OD.

The molecule B26 gave an optical density of 2.88 OD.

Consider B27, for which the optical density is 2.03 OD.

Molecule B28 came in with an optical density of 2.12 OD.

Take B29: the optical density was 3.14 OD.

Molecule B30 had an optical density of 3.11 OD.

In turn, B31 had an optical density of 3.09 OD.

The target of the next experiment is T2, biotinylated goat anti-human kappa light chain.
T2 construct: positive control of the ELISA
Briefly: ELISA, positive control. The procedure, abridged:
as §1
Molecule B1 came in with an optical density of 3.41 OD.

With B2, the optical density came to 3.75 OD.

B3: the optical density is 3.48 OD.

As to B4, the optical density was found to be 3.58 OD.

For the molecule B5, the optical density is 3.73 OD.

B6 returned an optical density of 3.47 OD.

The molecule B7 showed an optical density of 3.48 OD.

The molecule B8 registered an optical density of 3.53 OD.

B9 registered an optical density of 3.59 OD.

B10: the optical density came out at 3.49 OD.

Molecule B11 showed an optical density of 3.62 OD.

The molecule B12 yielded an optical density of 3.65 OD.

In the case of B13, the optical density came to 3.66 OD.

With B14, the optical density is 3.6 OD.

In turn, B15 returned an optical density of 3.37 OD.

B16 showed an optical density of 3.11 OD.

With B17, the optical density is 3.44 OD.

Take B18: the optical density was 3.48 OD.

In the case of B19, the optical density turned out to be 3.7 OD.

Regarding B20, the optical density is 3.59 OD.

Turning to B21, the optical density was 3.2 OD.

In the case of B22, the optical density amounted to 3.17 OD.

As for B23, the optical density worked out at 3.5 OD.

B24: the optical density worked out at 3.34 OD.

For B25, the optical density stood at 3.41 OD.

B26 displayed an optical density of 3.66 OD.

The molecule B27 yielded an optical density of 3.62 OD.

B28 registered an optical density of 3.51 OD.

In turn, B29 had an optical density of 3.61 OD.

For B30, the optical density came to 3.44 OD.

Molecule B31 yielded an optical density of 3.37 OD.
